Laboratory results published in US20250304644A1, “PEPTIDES TRIPLE AGONISTS OF GIP, GLP-1 AND GLP-2” (BAINAN BIOTECH APS, priority 2021, published 2025).
Several values for one entry are separate records, joined by “and”; a condition that tells them apart may be missing. Equal values may be shown once. *1 amine or outer side, *2 acyl side, *3 side chain or, on linkers, in order; H or OH if unused. Where a SMILES comes first, the peptide text is derived from it. Where no end group is shown, it is not given here. Side-chain parts run from the residue outwards. [ ]: non-standard residue; d: D form. The star is where a group is joined. C18 diacid = O=C(O)CCCCCCCCCCCCCCCCC(=O)*; γGlu = O=C(O)[C@H](CCC(=O)[*:2])N[*:1]; AEEA = NCCOCCOCC(=O)O; Aib = CC(C)(N)C(=O)O

T1: human GIPR (Homo sapiens, UniProt P48546)
T1 construct: host or cells: COS-7
T1 sequence (P48546 22-466): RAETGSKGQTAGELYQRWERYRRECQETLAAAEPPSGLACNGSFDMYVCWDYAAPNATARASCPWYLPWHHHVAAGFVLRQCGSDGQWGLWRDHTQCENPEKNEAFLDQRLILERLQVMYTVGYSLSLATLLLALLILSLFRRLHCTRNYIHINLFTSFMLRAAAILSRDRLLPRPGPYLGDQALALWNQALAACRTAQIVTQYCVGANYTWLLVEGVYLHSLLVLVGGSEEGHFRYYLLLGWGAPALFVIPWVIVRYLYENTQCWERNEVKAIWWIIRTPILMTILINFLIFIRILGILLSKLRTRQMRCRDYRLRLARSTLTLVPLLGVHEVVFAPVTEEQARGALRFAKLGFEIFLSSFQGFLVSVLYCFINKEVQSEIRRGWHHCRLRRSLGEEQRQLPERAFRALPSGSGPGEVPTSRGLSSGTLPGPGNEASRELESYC

T2: human GLP-2R (Homo sapiens, UniProt O95838)
T2 construct: host or cells: COS-7
T2 sequence (O95838 1-553): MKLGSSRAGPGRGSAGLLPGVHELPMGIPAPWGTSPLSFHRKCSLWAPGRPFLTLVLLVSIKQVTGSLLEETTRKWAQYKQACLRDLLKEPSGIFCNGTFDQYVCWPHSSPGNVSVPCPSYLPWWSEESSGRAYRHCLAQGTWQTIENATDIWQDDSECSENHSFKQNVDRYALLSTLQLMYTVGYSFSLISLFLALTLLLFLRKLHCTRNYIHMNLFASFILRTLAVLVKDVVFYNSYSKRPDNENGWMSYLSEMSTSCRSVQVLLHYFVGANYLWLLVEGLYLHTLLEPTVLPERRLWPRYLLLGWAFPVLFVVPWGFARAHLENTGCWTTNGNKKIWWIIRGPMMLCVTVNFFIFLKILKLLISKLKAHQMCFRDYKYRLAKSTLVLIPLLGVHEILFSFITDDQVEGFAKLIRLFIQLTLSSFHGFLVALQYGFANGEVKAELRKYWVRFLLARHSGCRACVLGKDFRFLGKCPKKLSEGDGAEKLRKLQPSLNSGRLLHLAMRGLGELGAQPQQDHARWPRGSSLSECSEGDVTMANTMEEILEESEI

T3: human SNAP-tagged GIPR (Homo sapiens, UniProt P48546)
T3 construct: host or cells: HEK293A
T3 sequence (P48546 22-466): T1 sequence (P48546 22-466)

T4: human SNP-tagged GLP-2R (Homo sapiens, UniProt O95838)
T4 construct: expressed in transfected cells; host or cells: HEK293A
T4 sequence (O95838 1-553): T2 sequence (O95838 1-553)

T5: human GIPR (glucose-dependent insulinotropic polypeptide receptor) (human, UniProt P48546 22-466)
T5 sequence (looked up): T1 sequence (P48546 22-466)

T6: human GLP-2R (glucagon-like peptide-2 receptor) (human, UniProt O95838 1-553)
T6 sequence (looked up): T2 sequence (O95838 1-553)

T7: Human N-terminally SNAP-tagged GIPR (human, UniProt P48546 22-466, SNAP tag labeled with Tag-Lite SNAP-Lumi4-Tb)
T7 sequence (looked up): T1 sequence (P48546 22-466)

T8: human SNAP-tagged GLP-2R (human, UniProt O95838 1-553, SNAP tag labeled with Tag-Lite SNAP-Lumi4-Tb)
T8 sequence (looked up): T2 sequence (O95838 1-553)

B1: Compound 19 (peptide)
peptide: HADGTFTSDYSTILDNLAARDFINWLIQTKGKK([γGlu-C18 diacid])-OH
modifications: N-terminus assumed
SMILES: CC[C@H](C)[C@H](NC(=O)[C@H](Cc1ccccc1)NC(=O)[C@H](CC(=O)O)NC(=O)[C@H](CCCNC(=N)N)NC(=O)[C@H](C)NC(=O)[C@H](C)NC(=O)[C@H](CC(C)C)NC(=O)[C@H](CC(N)=O)NC(=O)[C@H](CC(=O)O)NC(=O)[C@H](CC(C)C)NC(=O)[C@@H](NC(=O)[C@@H](NC(=O)[C@H](CO)NC(=O)[C@H](Cc1ccc(O)cc1)NC(=O)[C@H](CC(=O)O)NC(=O)[C@H](CO)NC(=O)[C@@H](NC(=O)[C@H](Cc1ccccc1)NC(=O)[C@@H](NC(=O)CNC(=O)[C@H](CC(=O)O)NC(=O)[C@H](C)NC(=O)[C@@H](N)Cc1c[nH]cn1)[C@@H](C)O)[C@@H](C)O)[C@@H](C)O)[C@@H](C)CC)C(=O)N[C@@H](CC(N)=O)C(=O)N[C@@H](Cc1c[nH]c2ccccc12)C(=O)N[C@@H](CC(C)C)C(=O)N[C@H](C(=O)N[C@@H](CCC(N)=O)C(=O)N[C@H](C(=O)N[C@@H](CCCCN)C(=O)NCC(=O)N[C@@H](CCCCN)C(=O)N[C@@H](CCCCNC(=O)CC[C@H](NC(=O)CCCCCCCCCCCCCCCCC(=O)O)C(=O)O)C(=O)O)[C@@H](C)O)[C@@H](C)CC

Assays:
[1] = target: T1, human GIPR; test: cAMP assay (HitHunter) in transiently transfected COS-7 cells expressing human GIPR; type: cell-based; conditions: COS-7; normalized to highest concentration of the endogenous ligand; read-out: Efficacy GIPR (Emax)
[2] = target: T2, human GLP-2R; test: cAMP assay (HitHunter) in transiently transfected COS-7 cells expressing human GLP-2R; type: cell-based; conditions: for Emax: COS-7, normalized to highest concentration of the endogenous ligand, read-out: Efficacy GLP-2R (Emax)
[3] = target: T9, human GLP-1R (Homo sapiens, UniProt P43220); test: cAMP assay (HitHunter) in transiently transfected COS-7 cells expressing human GLP-1R; type: cell-based; conditions: for Emax: COS-7, normalized to highest concentration of the endogenous ligand, read-out: Efficacy GLP-1R (Emax)
T9 construct: host or cells: COS-7

[4] = target: human glucagon receptor (GCGR) (Homo sapiens, UniProt P47871); test: Gs activation measured as cAMP accumulation on human glucagon receptor (FIG. 1 radar plot); type: cell-based; conditions: read-out: −p Log EC50 on human glucagon receptor (GCGR) (converted)
Excerpt: Here, the compounds 20, 21, 22, 28, 30, 31,32, 33, 34, 35 are shown in terms of their potencies in Gs activation, measured as CAMP accumulation, depicted in a radar plot. The numbers refer to −p Log EC50 values. […] The outer rings correspond to higher potencies, the inner rings correspond to lower potencies.

[5] = target: T3, human SNAP-tagged GIPR; test: Receptor internalization assay, HEK293A cells expressing human SNAP-tagged GIPR; type: cell-based; conditions: for Absolute hGIPR internalization (AUC): AUC of sigmoid curves up to 1 μM, 60 minutes at 37° C.
[6] = target: T10, human SNAP-tagged GLP-1R (Homo sapiens, UniProt P43220); test: Receptor internalization assay, HEK293A cells expressing human SNAP-tagged GLP-1R; type: cell-based; conditions: for Absolute hGLP-1R internalization (AUC): AUC of sigmoid curves up to 1 μM, 60 minutes at 37° C.
T10 construct: expressed in transfected cells; host or cells: HEK293A

[7] = target: T4, human SNP-tagged GLP-2R; test: Receptor internalization assay, HEK293A cells expressing human SNAP-tagged GLP-2R; type: cell-based; conditions: for Absolute hGLP-2R internalization (AUC): AUC of sigmoid curves up to 1 μM, 60 minutes at 37° C.
[8] = target: T5, human GIPR (glucose-dependent …); test: cell-based or functional assay
[9] = target: T6, human GLP-2R (glucagon-like peptide-2 …); test: cell-based or functional assay
[10] = target: human GLP-1R (glucagon-like peptide-1 receptor) (human, UniProt P43220 24-463); test: cell-based or functional assay
[11] = target: T7, Human N-terminally SNAP-tagged GIPR; test: cell-based or functional assay
[12] = target: T8, human SNAP-tagged GLP-2R; test: cell-based or functional assay

T10 sequence (P43220 24-463): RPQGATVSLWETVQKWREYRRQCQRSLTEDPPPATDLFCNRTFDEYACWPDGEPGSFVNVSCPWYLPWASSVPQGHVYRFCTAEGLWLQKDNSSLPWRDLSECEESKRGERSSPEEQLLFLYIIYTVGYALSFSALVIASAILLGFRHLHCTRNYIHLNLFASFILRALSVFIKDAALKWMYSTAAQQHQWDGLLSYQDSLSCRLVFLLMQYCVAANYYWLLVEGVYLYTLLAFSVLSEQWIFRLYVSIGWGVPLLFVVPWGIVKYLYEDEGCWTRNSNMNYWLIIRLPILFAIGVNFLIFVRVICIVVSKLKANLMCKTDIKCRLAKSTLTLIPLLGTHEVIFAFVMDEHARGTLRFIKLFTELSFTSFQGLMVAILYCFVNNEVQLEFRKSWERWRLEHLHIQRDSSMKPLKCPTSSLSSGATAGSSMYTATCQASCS
T9 sequence (P43220 24-463): as above
Sequence of human glucagon receptor (GCGR) (P47871 26-477): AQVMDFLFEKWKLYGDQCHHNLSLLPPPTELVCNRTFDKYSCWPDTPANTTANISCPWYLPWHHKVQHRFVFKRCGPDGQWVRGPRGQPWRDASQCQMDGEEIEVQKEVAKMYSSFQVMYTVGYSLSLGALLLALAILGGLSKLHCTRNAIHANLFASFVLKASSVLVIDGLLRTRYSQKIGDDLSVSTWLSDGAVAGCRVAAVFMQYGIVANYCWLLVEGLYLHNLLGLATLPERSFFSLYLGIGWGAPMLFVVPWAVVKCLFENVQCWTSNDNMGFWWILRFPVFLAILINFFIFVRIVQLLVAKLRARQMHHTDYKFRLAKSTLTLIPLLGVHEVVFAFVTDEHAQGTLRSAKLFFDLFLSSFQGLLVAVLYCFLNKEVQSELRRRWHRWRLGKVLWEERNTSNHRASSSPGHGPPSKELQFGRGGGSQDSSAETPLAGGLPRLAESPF

Molecule	EC50 (nM) GIPR [8]	Efficacy GIPR [8]	pEC50 GIPR [8]	EC50 (nM) GLP-2R [9]	Efficacy GLP-2R [9]	logEC50 GLP-2R [9]	EC50 (nM) GLP-1R [10]	Efficacy GLP-1R [10]	logEC50 GLP-1R [10]	Absolute hGIPR internalization (AUC) [11]	Relative hGIPR internalization (%) [11]	further results
CC[C@H](C)[C@H](NC(=O)[C@H](Cc1ccccc1)NC(=O)[C@H](CC(=O)O)NC(=O)[C@H](CCCNC(=N)N)NC(=O)[C@H](C)NC(=O)[C@H](C)NC(=O)[C@H](CC(C)C)NC(=O)[C@H](C)NC(=O)[C@H](CC(=O)O)NC(=O)[C@H](CC(C)C)NC(=O)[C@@H](NC(=O)[C@@H](NC(=O)[C@H](CO)NC(=O)[C@H](Cc1ccc(O)cc1)NC(=O)[C@H](CC(=O)O)NC(=O)[C@H](CO)NC(=O)[C@@H](NC(=O)[C@H](Cc1ccccc1)NC(=O)[C@@H](NC(=O)CNC(=O)[C@H](CC(=O)O)NC(=O)C(C)(C)NC(=O)[C@@H](N)Cc1c[nH]cn1)[C@@H](C)O)[C@@H](C)CC)[C@@H](C)O)[C@@H](C)CC)C(=O)N[C@@H](CC(N)=O)C(=O)N[C@@H](Cc1c[nH]c2ccccc12)C(=O)N[C@@H](CC(C)C)C(=O)N[C@H](C(=O)N[C@@H](CCC(N)=O)C(=O)N[C@H](C(=O)N[C@@H](CCCCN)C(=O)N[C@H](C(=O)N[C@H](C(=O)N[C@@H](CCCCNC(=O)COCCOCCNC(=O)COCCOCCNC(=O)CC[C@H](NC(=O)CCCCCCCCCCCCCCCCC(=O)O)C(=O)O)C(=O)O)[C@@H](C)O)[C@@H](C)CC)[C@@H](C)O)[C@@H](C)CC [Compound 28] (H-H[Aib]DGTFISDYSTILDALAARDFINWLIQTKITK([AEEA-AEEA-γGlu-C18 diacid])-OH; N-terminus assumed)												Emax [1]: 119%; Emax [2]: 89%; EC50 ([2]; cAMP, COS-7 cells, human GLP-2R, read-out: EC50 (nM) GLP-2R): 2.2 nM; Emax [3]: 102%; EC50 ([3]; cAMP, COS-7 cells, human GLP-1R, read-out: EC50 (nM) GLP-1R): 3.98 nM; EC50 [4]: > 100 nM; Absolute hGIPR internalization (AUC) [5]: 21.7; Relative hGIPR internalization (%) ([5]; relative to hGIP 1-42 = 100): 58% and 59%; Absolute hGLP-1R internalization (AUC) [6]: 0.96; Relative hGLP-1R internalization (%) ([6]; relative to hGLP-1 = 100): 1.14%; Absolute hGLP-2R internalization (AUC) [7]: 12.0; Relative hGLP-2R internalization (%) ([7]; relative to native ligand = 100): 24.8%
CC[C@H](C)[C@H](NC(=O)[C@H](Cc1ccccc1)NC(=O)[C@H](CC(=O)O)NC(=O)[C@H](CCCNC(=N)N)NC(=O)[C@H](C)NC(=O)[C@H](C)NC(=O)[C@H](CC(C)C)NC(=O)[C@H](CC(N)=O)NC(=O)[C@H](CC(=O)O)NC(=O)[C@H](CC(C)C)NC(=O)[C@@H](NC(=O)[C@@H](NC(=O)[C@H](CO)NC(=O)[C@H](Cc1ccc(O)cc1)NC(=O)[C@H](CC(=O)O)NC(=O)[C@H](CO)NC(=O)[C@@H](NC(=O)[C@H](Cc1ccccc1)NC(=O)[C@@H](NC(=O)CNC(=O)[C@H](CC(=O)O)NC(=O)[C@H](C)NC(=O)[C@@H](N)Cc1c[nH]cn1)[C@@H](C)O)[C@@H](C)CC)[C@@H](C)O)[C@@H](C)CC)C(=O)N[C@@H](CC(N)=O)C(=O)N[C@@H](Cc1c[nH]c2ccccc12)C(=O)N[C@@H](CC(C)C)C(=O)N[C@H](C(=O)N[C@@H](CCC(N)=O)C(=O)N[C@H](C(=O)N[C@@H](CCCCN)C(=O)NCC(=O)N[C@@H](CCCCN)C(=O)N[C@@H](CCCCN)C(=O)N[C@@H](CCCCNC(=O)COCCOCCNC(=O)COCCOCCNC(=O)CC[C@H](NC(=O)CCCCCCCCCCCCCCCCC(=O)O)C(=O)O)C(=O)O)[C@@H](C)O)[C@@H](C)CC [Compound 34] (H-HADGTFISDYSTILDNLAARDFINWLIQTKGKKK([AEEA-AEEA-γGlu-C18 diacid])-OH; N-terminus assumed)												Emax [1]: 103%; Emax [2]: 91%; Emax [3]: 97%; Absolute hGIPR internalization (AUC) [5]: 14.7; Absolute hGLP-1R internalization (AUC) [6]: 6.0; Absolute hGLP-2R internalization (AUC) [7]: 8.0
HADGTFTSDYSTILDKK([AEEA-AEEA-γGlu-C18 diacid])AARDFINWLIQTKGKKNDWKHNITQ-OH [Compound 23]	7.08 nM	82	8.2	3.5 nM	95	8.5	0.05 nM	105	10.3	1.2 AUC	3%	
B1		92	9.2	31.6 nM	94	7.5	0.06 nM	106	10.2	8.9 AUC	24%	
HADGTFTSDYSTILDKLAARDFINWLIQTKGKKNDWK([AEEA-AEEA-γGlu-C18 diacid])HNITQ-OH [Compound 25]	0.398 nM	107	9.4	7.9 nM	117	8.1	0.05 nM	116	10.3	13.1 AUC	35%	
HADGSFSDEMNTILDNLAARDFINWLIQTKITD (ligand) [hGLP-2]												Absolute hGLP-2R internalization (AUC) [12]: 48.6 AUC
HADGTFTSDYST[Aib]LDKLAARDFINWLIQTKGKKNDWKHNITQK([AEEA-AEEA-γGlu-C18 diacid])-OH [Compound 27]	0.562 nM	124	9.3	3.2 nM	85	8.5	0.05 nM	115	10.3	9 AUC	24%	
